Common to all, as to settings: both partners purified
For experiment [1], the target named is T1, factor inhibiting HIF-1 (FIH-1) (human, UniProt Q9NWT6 1-349).
T1 construct: N-terminal His6 tag and TEV site (ENLYFQ) cleaved with TEV protease; Dimer by SEC and SEC-MALS (about 80 kDa); also called FIH-1 WT; source: E. coli BL21 (DE3), purified (Ni-NTA, TEV cleavage, SEC); not shown: His6, N-terminal, cleaved
The experiment is described as follows: ITC; Mint3 construct in the syringe (150 μM, 25 injections of 1.5 μl) titrated into 30 μM FIH-1 in the cell; 25 °C; 35 mM Na-phosphate pH 7.5, 300 mM NaCl, 500 μM αKG; single set of sites model. On the technique in general: In ITC the heat of successive injections is recorded.

The target of experiment [2] is T2, factor inhibiting HIF-1 (FIH-1), full-length (human, UniProt Q9NWT6 1-349).
T2 construct: Dimer by SEC and SEC-MALS; The TEV site ENLYFQ lay between the His6 tag and FIH-1; also called FIH-1 WT; source: E. coli BL21 (DE3), purified (Ni-NTA, TEV cleavage, SEC); not shown: His6, N-terminal, cleaved
T2 sequence (Q9NWT6 whole entry): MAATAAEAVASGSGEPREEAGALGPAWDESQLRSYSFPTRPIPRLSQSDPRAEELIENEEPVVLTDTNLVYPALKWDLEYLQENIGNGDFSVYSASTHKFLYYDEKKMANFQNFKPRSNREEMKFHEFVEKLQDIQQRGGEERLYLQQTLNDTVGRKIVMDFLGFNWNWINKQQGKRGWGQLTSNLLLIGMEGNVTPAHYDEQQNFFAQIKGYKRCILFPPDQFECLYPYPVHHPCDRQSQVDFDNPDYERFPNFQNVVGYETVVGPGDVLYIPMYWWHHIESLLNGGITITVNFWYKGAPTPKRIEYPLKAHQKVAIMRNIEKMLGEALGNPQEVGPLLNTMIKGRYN
The experiment can be described thus: ITC; MicroCal iTC200, 25 °C; 150 μM Mint3 in the syringe, 30 μM FIH-1 in the cell, 25 injections of 1.5 μl; 35 mM Na-phosphate pH 7.5, 300 mM NaCl, 500 μM αKG; single set of sites model; for Figure 4 also in the absence of αKG and/or with EDTA.

The target in another experiment is T3, FIH-1 Y71A (human, UniProt Q9NWT6 1-349, Tyr71 replaced with Ala).
T3 construct: also called Tyr71 replaced with Ala; source: E. coli BL21 (DE3), purified (mutants prepared as FIH-1); not shown: His6, N-terminal, cleaved
T3 sequence (Q9NWT6 whole entry Y71A): as the sequence (Q9NWT6 whole entry) above, with Y71A counted along it
Described as above.

The target in the next experiment is T4, FIH-1 K75A (human, UniProt Q9NWT6 1-349, Lys75 replaced with Ala).
T4 construct: also called Lys75 replaced with Ala; source: E. coli BL21 (DE3), purified (mutants prepared as FIH-1); not shown: His6, N-terminal, cleaved
T4 sequence (Q9NWT6 whole entry K75A): as the sequence (Q9NWT6 whole entry) above, with K75A counted along it
Described as above.

The next experiment has as its target T5, FIH-1 E79A (human, UniProt Q9NWT6 1-349, Glu79 replaced with Ala).
T5 construct: also called Glu79 replaced with Ala; source: E. coli BL21 (DE3), purified (mutants prepared as FIH-1); not shown: His6, N-terminal, cleaved
The experiment is described as above.

The target of the next experiment is T6, FIH-1 N171A (human, UniProt Q9NWT6 1-349, Asn171 replaced with Ala).
T6 construct: also called Asn171 replaced with Ala; source: E. coli BL21 (DE3), purified (mutants prepared as FIH-1); not shown: His6, N-terminal, cleaved
T6 sequence (Q9NWT6 whole entry N171A): as the sequence (Q9NWT6 whole entry) above, with N171A counted along it
The experiment is described as above.

For a further experiment, the target named is T7, FIH-1 E29A (human, UniProt Q9NWT6 1-349, Glu29 replaced with Ala).
T7 construct: also called Glu29 replaced with Ala (negative control); source: E. coli BL21 (DE3), purified (mutants prepared as FIH-1); not shown: His6, N-terminal, cleaved
T7 sequence (Q9NWT6 whole entry E29A): as the sequence (Q9NWT6 whole entry) above, with E29A counted along it
The description is as above.

The next experiment concerns the target T8, FIH-1 D248A (human, UniProt Q9NWT6 1-349, Asp248 replaced with Ala).
T8 construct: also called Asp248 replaced with Ala (negative control); source: E. coli BL21 (DE3), purified (mutants prepared as FIH-1); not shown: His6, N-terminal, cleaved
The description is as above.

The next experiment addresses T9, FIH-1 E250A (human, UniProt Q9NWT6 1-349, Glu250 replaced with Ala).
T9 construct: also called Glu250 replaced with Ala (negative control); source: E. coli BL21 (DE3), purified (mutants prepared as FIH-1); not shown: His6, N-terminal, cleaved
The description is as above.

Substitutions are numbered along the chain they refer to.

T1 sequence (Q9NWT6 whole entry): as the sequence (Q9NWT6 whole entry) above
T9 sequence (Q9NWT6 whole entry E250A): as the sequence (Q9NWT6 whole entry) above, with E250A counted along it
T8 sequence (Q9NWT6 whole entry D248A): as the sequence (Q9NWT6 whole entry) above, with D248A counted along it
T5 sequence (Q9NWT6 whole entry E79A): as the sequence (Q9NWT6 whole entry) above, with E79A counted along it

B1: Mint3 fragment (1-92) (domain or fragment, human, UniProt O96018 1-92, looked up)
chain: MDFPTISRSPSGPPAMDLEGPRDILVPSEDLTPDSQWDPMPGGPGSLSRMELDESSLQELVQQFEALPGDLVGPSPGGAPCPLHIATGHGLA
notes: human Mint3 (X11gamma/APBA3), residues 1-92; source: E. coli BL21 (DE3), purified (mutants/fragments of Mint3 prepared as Mint3NT)
As usually defined, the Kd is the free concentration of one partner at which half of the binding sites on the other are occupied at equilibrium, for simple one-to-one binding. High values mean a looser complex, low ones a tighter complex. B1 showed a Kd in [1] of 9000 ± 900 nM.

B2: Mint3 fragment (1–92) (domain or fragment, human, UniProt O96018 1-92, looked up)
chain: B1 chain
notes: source: E. coli BL21 (DE3), purified (mutants/fragments prepared as Mint3NT)
What is called stoichiometry N is the number of molecules, sites or subunits per partner or assembly. B2: the “stoichiometry N” value in experiment [2] was approximately 0.5.

B3: Mint3NT, N-terminal fragment (1-214) of Mint3 (domain or fragment, human, UniProt O96018 1-214, looked up)
chain: MDFPTISRSPSGPPAMDLEGPRDILVPSEDLTPDSQWDPMPGGPGSLSRMELDESSLQELVQQFEALPGDLVGPSPGGAPCPLHIATGHGLASQEIADAHGLLSAEAGRDDLLGLLHCEECPPSQTGPEEPLEPAPRLLQPPEDPDEDSDSPEWVEGASAEQEGSRSSSSSPEPWLETVPLVTPEEPPAGAQSPETLASYPAPQEVPGPCDHED
notes: human Mint3 (X11gamma/APBA3), residues 1-214; also called 1-214 (NT); Mint3(1-214); source: E. coli BL21 (DE3), purified (Ni-NTA, SEC; monomer fraction)
For the molecule B3, in [1], the Kd is 520 ± 20 nM.

B4: Mint3NT, N-terminal fragment (1–214) of Mint3 (domain or fragment, human, UniProt O96018 1-214, looked up)
chain: B3 chain
notes: Mint3 (X11γ/APBA3), human, N-terminal fragment, residues 1-214; Uniformly 15N-labelled (M9 medium) for the NMR titration; No cleavage site is told for the C-terminal His6 tag; also called Mint3(1–214); 15N-Mint3NT; source: E. coli BL21 (DE3), purified (Ni-NTA, SEC; monomer fraction collected)
On to B4, for which the binding result with FIH-1 Y71A, with FIH-1 K75A, with FIH-1 E79A, with FIH-1 N171A, in the experiment with FIH-1 E29A and in the experiment with FIH-1 D248A was “binds” each time. For the same molecule, the binding result with FIH-1 E250A is “binds”. The dH in [2] was -32.2 ± 0.7 kcal/mol. In experiment [2], the “stoichiometry N” value is 0.48 ± 0.02.

B5: Mint3NTmut, Mint3NT (1–214) with the mutations … → AAASAAAGRD (domain or fragment, human, UniProt O96018 1-214, looked up)
chain: B3 chain with G101A, L102A, L103A, E106A
notes: as for B2
For the molecule B5, in experiment [2], the affinity, expressed as Kd, was 1310 nM; the dH is -13.9 kcal/mol; the “stoichiometry N” value is approximately 0.5.

B6: Mint3(1–117), N-terminal half of Mint3NT (domain or fragment, human, UniProt O96018 1-117, looked up)
chain: MDFPTISRSPSGPPAMDLEGPRDILVPSEDLTPDSQWDPMPGGPGSLSRMELDESSLQELVQQFEALPGDLVGPSPGGAPCPLHIATGHGLASQEIADAHGLLSAEAGRDDLLGLLH
notes: as for B2
Consider B6, for which, in [2], the dissociation constant (Kd) was 650 ± 70 nM, the “dH relative to Mint3NT” value is approximately 0.5 and the “stoichiometry N” value is approximately 0.5.

B7: short peptide of Mint3 (93–117) (peptide, UniProt O96018 93-117, looked up)
chain: SQEIADAHGLLSAEAGRDDLLGLLH
notes: The methods say only that mutants/fragments of Mint3 were prepared as Mint3NT (E. coli, C-terminal His6); the results call this a peptide and speak of synthesis for the peptide 78-88, so it may be synthetic
Turning to B7, in experiment [2], the Kd worked out at 3000 ± 600 nM and the “stoichiometry N” value was approximately 0.5.
